Experimental data reported in the supplement of paper PMC9170038.

System: MS2 coat protein
Test: apparent KD of MS2 coat protein; designed switch direction (-1 OFF switch, 1 ON switch): -1; higher = weaker reporter binding
Procedure, shortened: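 SNAP-549-labelled MS2 coat protein was titrated, doubling from 0.7 or 1.5 nM to 3 µM, over designed RNA switches transcribed on Illumina chips by stalled E. coli RNA polymerase. Runs were done without input, with 200 uM small-molecule ligand, or with an oligonucleotide input. Apparent KD is the per-design median over clusters of curve-fitted normalised fluorescence.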

[1] = Eterna round: R95, input ligand: microRNA oligo, concentration not stated
[2] = input ligand: microRNA oligo, concentration not stated
[3] = Eterna round: R95, input ligand: FMN 200 uM
[4] = Eterna round: R95, input ligand: none

Sequence	apparent KD of MS2 coat protein (input ligand: FMN 200 uM) [nM]	apparent KD of MS2 coat protein (input ligand: none) [nM]	apparent KD of MS2 coat protein [1] [nM]	apparent KD of MS2 coat protein [2] [nM]	other results
UUUAUGCUAGGAUAUGCACCCUCGAACAUGAGGAUCACCCAUGUACAAUAAAAGCAUGGAGCAGAAGGAGCUCCCA [EX5 A.24] (Eterna round: R97, puzzle: Exclusion 5)	378	80.1			
ACAUCGCCAGAAGUAGGUGACAUGAGGAUCACCCAUGUAGGCUAUUUUGCUCGUUUUAUUUCCACCCUAUUUGCUCC [Eternabot (L1) Solution 13] (Eterna round: R97, puzzle: Sensor, turn-off variant 1)	146	190			
GAUGUUCUGGUCAGGAUAUGCAUCCGUCGGCCGGAGCAGAAGGGACAUGAGGAUCACCCAUGUGCGGGUACAAA [Onvegeor] (puzzle: Brourd's mod of Exclusion 4)			38.4		
GAACGUGGUGAGGAUAUCCGGUCUAACGUGCCAGGAGAAGGCGCCACAUGAGGAUCACCCAUGUGGGUCCCGCC [EX6 B.9] (Eterna round: R97, puzzle: Exclusion 6)	26	14.9			
ACGCAUUGCCAAAGGUAGUGCGUAACAUGAGGAUCACCCAUGUAGGAUAUGGUAGGCUUUGCUUACCAGAAGGACAUAAUAAUU [Mat - Exclusion NG 3 - Mod of JL - D4] (Eterna round: R96, puzzle: Exclusion NG 3)	43.6	27.8		22.7	
UAUUAGCAAGUAAGAUCCCACAUGAGGAUCACCCAUGUGCUCGUCAUAUCACGUACUGUGAGGAAACUCACGGUACG [Sensor-V1 #85] (Eterna round: R97, puzzle: Sensor, turn-off variant 1)	114	128			
AUCCUGAGGCUUUGCUUUAGGCGUACAUGAGGAUCACCCAUGUAGGAUAUGGUAGGCUUUGCUUACCAGAAGGACAUUAUGAUC [JL EXNG3 1.19] (Eterna round: R96, puzzle: Exclusion NG 3)	243	43		44.1	
CCGAUAAUGUAGGAUAUCGUAUCGGAGACGAUACGAGAAGGACAAACAUGAGGAUCACCCAUGUUCCUUAACGG [Mat - Exclusion 6 - Eli Mod - D74] (puzzle: Exclusion 6)			13.5		
UCUUAACAUGAGGAUCACCCAUGUGAGGAUAUGAUGCAGCAGUGGUCUACGCUGUGCAUCAGAAGGUACAUGGG (puzzle: Exclusion 1)			26.8		
ACAUGAGGAUCACCCAUGUAAUCAUGAUGGCUGAUGUAGAGGUAGGAUAUGAGUGGCUUUCUAUCUCAGAAGGACCAAGACUGG [Deportation 39 - Jieux - Exclusion NG 3] (Eterna round: R96, puzzle: Exclusion NG 3)	29	27.3		21.6	
CCUCAGUAAGGAUAUCAGCUUAGGAGGUUGGUAAUGAGAGCUGAGAAGGUACAUGAGGAUCACCCAUGUUAGUU [JL Zatite mod 7] (puzzle: Exclusion 4)			30.2		
AAGCGACGAGGAUAUCGGUGGCUGAACAUGAGGAUCACCCAUGUGAACCGAUGGCAGUGUCGAGAAGGUGUUGAGU [Teceenla] (puzzle: Exclusion 5)			12.3		
CCCGCGGGCGCAGGAUAUACAUGAGGAUCACCCAUGUGCCGCGCAAGCGGCAGAGCGGACAACGGGUAGAAGGGCGCCCGCGGG [first try] (Eterna round: R96, puzzle: Exclusion NG 2)	875	492		202	
AAUAACAGAGGAUAUACUGUUUUAUGUGUUUGUUGUUUUAAACAUGAGGAUCACCCAUGUAGAAGGCUGAAUGA [JMF 60] (puzzle: Exclusion 2)			21.8		
ACAUGAGGAUCACCCAUGUAAUCAUGAUGGCUGAUGUAGAGUCAGGAUAUGUGUGGCUUUCUAUCGCAGAAGGGACAAGACUGG [Deportation 35 - Jieux - Exclusion NG 3] (Eterna round: R96, puzzle: Exclusion NG 3)	45.6	43.4		37.7	
AAGAAACAUGAGGAUCACCCAUGUGAGGAUAUGAUAAAGAAAAGAAAAGAAAGAAGAUUCAGAAGGCACAAAGG [salish99-ex1_r3_034] (puzzle: Exclusion 1)			39.4		apparent KD of MS2 coat protein [3]: 62.3 nM; apparent KD of MS2 coat protein [4]: 48.7 nM
GCCGAAAAAGUGAGGAUAUACCUAUGGAUACAUAGGUAGAAGGCACAUGAGGAUCACCCAUGUGUCCUAACGGC [Eli bmx4 4.29] (Eterna round: R97, puzzle: Brourd's mod of Exclusion 4)	18	15.2			
UGACAGGCUAGACGAACAAACAUGAGGAUCACCCAUGUCAUUCCAUGUCUGCGUCAUAAGUAGAUGCUCGUAUAUCG [Eternabot (Original) Solution 33] (Eterna round: R97, puzzle: Sensor, turn-off variant 1)	16.6	18.1			
CAGUACUGAGGAUAUACAUGAGGAUCACCCAUGUGUGCCAGCUAGGAAACUAGCAAAAGUAGAAGGCAGUACUG [salish99_ex3_r3_082] (puzzle: Exclusion 3)			12		apparent KD of MS2 coat protein [3]: 102 nM; apparent KD of MS2 coat protein [4]: 11.9 nM
UUUAAACAUGAGGAUCACCCAUGUUAGGAUAUACGCAUGCAGACACGCACGGAUGCAAGUAGAAGGAACCAUGC [Design #6] (Eterna round: R97, puzzle: Exclusion 1)	27.9	31.3			
GCUCUUGGGCAAGGAUAUCCUGCGCGGUUCCGGUUCGUGUCUGUCACAUGAGGAUCACCCAUGUGGGAGAAGGUGCCUGCGGUG [Design 74] (Eterna round: R96, puzzle: Exclusion NG 2)	28.6	15.9		12.3	
UUUUGGCAUGUAGGAUAUGGGUCCGAUUGGGAUUUAGAAGGACAUGAGGAUCACCCAUGUGCCCUUACUUGGUCUUUUUUUUUU [EXclNG1-LROPPY19] (Eterna round: R96, puzzle: Exclusion NG 1)	298	228		128	
GAAAAGUCAGGAUAUGCAGAUAAAAAAACGAAAAAAAAUCUGCAGAAGGGACAUGAGGAUCACCCAUGUAAAAG [Mat - Exclusion 4 - Mayanna - D110] (Eterna round: R96, puzzle: Exclusion 4)				29.1	
AAACAGGAAGGAUAUACAUUAUCGGAUCUUCUGGCAAUGCCACAUGAGGAUCACCCAUGUAGAAGGUCCAAAUU [Isenona] (puzzle: Exclusion 2)			12.7		
